Experimental data published in patent US20130039933.

Assays:
[1] = molecular target: A366 peptide (STING peptide substrate with alanine at 366)
[2] = molecular target: S366 peptide (STING peptide substrate with serine 366)

B1: RIPK5 (protein)
chain: FAASLRQLEAGHSGRLEKTEDLWLRVRKDHAPRLARLSLESCSLQDVLLHRKPKLGQELGRGQYGVVYLCDNWGGHFPCALKSVVPPDEKHWNDLALEFHYMRSLPKHERLVDLHGSVIDYNYGGGSSIAVLLIMERLHRDLYTGLKAGLTLETRLQIALDVVEGIRFLHSQGLVHRDIKLKNVLLDKQNRAKITDLGFCKPEAMMSGSIVGTPIHMAPELFTGKYDNSVDVYAFGILFWYICSGSVKLPEAFERCASKDHLWNNVRRGARPERLPVFDEECWQLMEACWDGDPLKRPLLGIVQPMLQGIMNRLCKSNSEQPNRGLDDST
Activity (cpm) [1]: 1330 cpm
Activity (cpm) [2]: 16000 cpm
Fold induction [2]: 12 fold

B2: NEK9 (protein)
chain: MSVLGEYERHCDSINSDFGSESGGCGDSSPGPSASQGPRAGGGAAEQEELHYIPIRVLGRGAFGEATLYRRTEDDSLVVWKEVDLTRLSEKERRDALNEIVILALLQHDNIIAYYNHFMDNTTLLIELEYCNGGNLYDKILRQKDKLFEEEMVVWYLFQIVSAVSCIHKAGILHRDIKTLNIFLTKANLIKLGDYGLAKKLNSEYSMAETLVGTPYYMSPELCQGVKYNFKSDIWAVGCVIFELLTLKRTFDATNPLNLCVKIVQGIRAMEVDSSQYSLELIQMVHSCLDQDPEQRPTADELLDRPLLRKRRREMEEKVTLLNAPTKRPRSSTVTEAPIAVVTSRTSEVYVWGGGKSTPQKLDVIKSGCSARQVCAGNTHFAVVTVEKELYTWVNMQGGTKLHGQLGHGDKASYRQPKHVEKLQGKAIRQVSCGDDFTVCVTDEGQLYAFGSDYYGCMGVDKVAGPEVLEPMQLNFFLSNPVEQVSCGDNHVVVLTRNKEVYSWGCGEYGRLGLDSEEDYYTPQKVDVPKALIIVAVQCGCDGTFLLTQSGKVLACGLNEFNKLGLNQCMSGIINHEAYHEVPYTTSFTLAKQLSFYKIRTIAPGKTHTAAIDERGRLLTFGCNKCGQLGVGNYKKRLGINLLGGPLGGKQVIRVSCGDEFTIAATDDNHIFAWGNGGNGRLAMTPTERPHGSDICTSWPRPIFGSLHHVPDLSCRGWHTILIVEKVLNSKTIRSNSSGLSIGTVFQSSSPGGGGGGGGGEEEDSQQESETPDPSGGFRGTMEADRGMEGLISPTEAMGNSNGASSSCPGWLRKELENAEFIPMPDSPSPLSAAFSESEKDTLPYEELQGLKVASEAPLEHKPQVEASSPRLNPAVTCAGKGTPLTPPACACSSLQVEVERLQGLVLKCLAEQQKLQQENLQIFTQLQKLNKKLEGGQQVGMHSKGTQTAKEEMEMDPKPDLDSDSWCLLGTDSCRPSL
Activity (cpm) [1]: 6980 cpm
Activity (cpm) [2]: 26300 cpm
Fold induction [2]: 3.77 fold

B3: PKCι (protein)
chain: MPTQRDSSTMSHTVAGGGSGDHSHQVRVKAYYRGDIMITHFEPSISFEGLCNEVRDMCSFDNEQLFTMKWIDEEGDPCTVSSQLELEEAFRLYELNKDSELLIHVFPCVPERPGMPCPGEDKSIYRRGARRWRKLYCANGHTFQAKRFNRRAHCAICTDRIWGLGRQGYKCINCKLLVHKKCHKLVTIECGRHSLPQEPVMPMDQSSMHSDHAQTVIPYNPSSHESLDQVGEEKEAMNTRESGKASSSLGLQDFDLLRVIGRGSYAKVLLVRLKKTDRIYAMKVVKKELVNDDEDIDWVQTEKHVFEQASNHPFLVGLHSCFQTESRLFFVIEYVNGGDLMFHMQRQRKLPEEHARFYSAEISLALNYLHERGIIYRDLKLDNVLLDSEGHIKLTDYGMCKEGLRPGDTTSTFCGTPNYIAPEILRGEDYGFSVDWWALGVLMFEMMAGRSPFDIVGSSDNPDQNTEDYLFQVILEKQIRIPRSLSVKAASVLKSFLNKDPKERLGCHPQTGFADIQGHPFFRNVDWDMMEQKQVVPPFKPNISGEFGLDNFDSQFTNEPVQLTPDDDDIVRKIDQSEFEGFEYINPLLMSAEECV
Activity (cpm) [1]: 6810 cpm
Activity (cpm) [2]: 12800 cpm
Fold induction [2]: 1.88 fold

B4: MEKK1 (protein)
chain: NQKCKEKMEAEEEEALAIAMAMSASQDALPIVPQLQVENGEDIIIIQQDTPETLPGHTKAKQPYREDTEWLKGQQIGLGAFSSCYQAQDVGTGTLMAVKQVTYVRNTSSEQEEVVEALREEIRMMSHLNHPNIIRMLGATCEKSNYNLFIEWMAGGSVAHLLSKYGAFKESVVINYTEQLLRGLSYLHENQIIHRDVKGANLLIDSTGQRLRIADFGAAARLASKGTGAGEFQGQLLGTIAFMAPEVLRGQQYGRSCDVWSVGCAIIEMACAKPPWNAEKHSNHLALIFKIASATTAPSIPSHLSPGLRDVALRCLELQPQDRPPSRELLKHPVFRTTW
Activity (cpm) [1]: 11300 cpm
Activity (cpm) [2]: 24900 cpm
Fold induction [2]: 2.2 fold

B5: IKKα (protein)
chain: MERPPGLRPGAGGPWEMRERLGTGGFGNVCLYQHRELDLKIAIKSCRLELSTKNRERWCHEIQIMKKLNHANVVKACDVPEELNILIHDVPLLAMEYCSGGDLRKLLNKPENCCGLKESQILSLLSDIGSGIRYLHENKIIHRDLKPENIVLQDVGGKIIHKIIDLGYAKDVDQGSLCTSFVGTLQYLAPELFENKPYTATVDYWSFGTMVFECIAGYRPFLHHLQPFTWHEKIKKKDPKCIFACEEMSGEVRFSSHLPQPNSLCSLVVEPMENWLQLMLNWDPQQRGGPVDLTLKQPRCFVLMDHILNLKIVHILNMTSAKIISFLLPPDESLHSLQSRIERETGINTGSQELLSETGISLDPRKPASQCVLDGVRGCDSYMVYLFDKSKTVYEGPFASRSLSDCVNYIVQDSKIQLPIIQLRKVWAEAVHYVSGLKEDYSRLFQGQRAAMLSLLRYNANLTKMKNTLISASQQLKAKLEFFHKSIQLDLERYSEQMTYGISSEKMLKAWKEMEEKAIHYAEVGVIGYLEDQIMSLHAEIMELQKSPYGRRQGDLMESLEQRAIDLYKQLKHRPSDHSYSDSTEMVKIIVHTVQSQDRVLKELFGHLSKLLGCKQKIIDLLPKVEVALSNIKEADNTVMFMQGKRQKEIWHLLKIACTQSSARSLVGSSLEGAVTPQTSAWLPPTSAEHDHSLSCVVTPQDGETSAQMIEENLNCLGHLSTIIHEANEEQGNSMMNLDWSWLTE
Activity (cpm) [1]: 2430 cpm
Activity (cpm) [2]: 6890 cpm
Fold induction [2]: 2.83 fold

B6: IRAK4 (protein)
chain: MNKPITPSTYVRCLNVGLIRKLSDFIDPQEGWKKLAVAIKKPSGDDRYNQFHIRRFEALLQTGKSPTSELLFDWGTTNCTVGDLVDLLIQNEFFAPASLLLPDAVPKTANTLPSKEAITVQQKQMPFCDKDRTLMTPVQNLEQSYMPPDSSSPENKSLEVSDTRFHSFSFYELKNVTNNFDERPISVGGNKMGEGGFGVVYKGYVNNTTVAVKKLAAMVDITTEELKQQFDQEIKVMAKCQHENLVELLGFSSDGDDLCLVYVYMPNGSLLDRLSCLDGTPPLSWHMRCKIAQGAANGINFLHENHHIHRDIKSANILLDEAFTAKISDFGLARASEKFAQTVMTSRIVGTTAYMAPEALRGEITPKSDIYSFGVVLLEIITGLPAVDEHREPQLLLDIKEEIEDEEKTIEDYIDKKMNDADSTSVEAMYSVASQCLHEKKNKRPDIKKVQQLLQEMTAS
Activity (cpm) [1]: 7440 cpm
Activity (cpm) [2]: 50400 cpm
Fold induction [2]: 6.77 fold

B7: NEK2 (protein)
chain: MPSRAEDYEVLYTIGTGSYGRCQKIRRKSDGKILVWKELDYGSMTEAEKQMLVSEVNLLRELKHPNIVRYYDRIIDRTNTTLYIVMEYCEGGDLASVITKGTKERQYLDEEFVLRVMTQLTLALKECHRRSDGGHTVLHRDLKPANVFLDGKQNVKLGDFGLARILNHDTSFAKTFVGTPYYMSPEQMNRMSYNEKSDIWSLGCLLYELCALMPPFTAFSQKELAGKIREGKFRRIPYRYSDELNEIITRMLNLKDYHRPSVEEILENPLIADLVADEQRRNLERRGRQLGEPEKSQDSSPVLSELKLKEIQLQERERALKAREERLEQKEQELCVRERLAEDKLARAENLLKNYSLLKERKFLSLASNPELLNLPSSVIKKKVHFSGESKENIMRSENSESQLTSKSKCKDLKKRLHAAQLRAQALSDIEKNYQLKSRQILGMR
Activity (cpm) [1]: 8700 cpm
Activity (cpm) [2]: 162000 cpm
Fold induction [2]: 18.6 fold
